System: T1, CadR (Pseudomonas aeruginosa), ORF:ef015ded
T1 sequence: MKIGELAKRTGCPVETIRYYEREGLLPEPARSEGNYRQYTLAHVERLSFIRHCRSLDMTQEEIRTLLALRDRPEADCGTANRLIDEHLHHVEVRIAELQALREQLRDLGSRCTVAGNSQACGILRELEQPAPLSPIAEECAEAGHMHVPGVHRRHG
Test: EMSA
Conditions: EMSA: 10 mM Tris pH 8.0, 40 mM KCl, 10 mM MgCl2, 1 mM DTT, 5% glycerol, 250 nM CadR, 25 ng DNA, +/- Zn or EDTA, 30 min room temperature, gel at 4 C …

Row | Sequence | binding
1 | CCATGATCATGTCCGTGACCGTGACCGTGACAGCAAGTGTCGGCGTGTTCGTGGCTCATGGAAACAATTCCCGTTTGACGTGTTGGGTGCGATTGCACACCCTGTAGCAACTACAGAGTCAAGCGGTACTGCCAATTCGGGTAGCCGCGTCGGCGATTGGAGGAGGGTTGGCATGAAGATCGGTGAGCTGGCGAAGAGAACCGGTT (double strand) [pcadA WT promoter (EMSA)] | binds
2 | GCTTCCGGTCAGCAGCAACGCCCATTTCAGGCGGGTCGAGTTGGTCTGGGCGAAGCTGTGCTCGTGTCCGGCGCTCATGGCGGCTCCTGTGGGGCGGTGGCGGCAGCACCAGCCTACAGGATAGGCAATTGCAAAACTGTCATGCGCCGGGCCGCTCTGGCGCGGCGTCCGCCGCTCCGCTAACCTGCGGCTCAGGCGCGGCCGCAGCCGCGCACGGAACGAGGGGGACGCATGACTCAACAGCACGA (double strand) [pczcD] | no binding

Reference: paper PMC7242495
